Assay results: publication PMC9597577, “Mutant Ras and inflammation-driven skin tumorigenesis is suppressed via a JNK-iASPP-AP1 axis” (Cell Reports, 2022)
Blank lines part the entries; values can stand above or below the binder they belong to.

Tests used:
[1] = molecular target: T1, ASPP1 CTD (887–1090) (Homo sapiens (Human), UniProt Q96KQ4); assay: ITC
T1 chain: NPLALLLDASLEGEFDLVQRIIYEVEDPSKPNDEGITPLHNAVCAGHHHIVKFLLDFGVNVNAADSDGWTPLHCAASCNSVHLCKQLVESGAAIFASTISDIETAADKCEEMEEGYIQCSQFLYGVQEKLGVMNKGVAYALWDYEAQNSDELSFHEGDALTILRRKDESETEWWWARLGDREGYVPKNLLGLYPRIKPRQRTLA

[2] = molecular target: T2, ASPP1 CTD (887–1090) (Homo sapiens (Human), UniProt Q96KQ4); assay: ITC
T2 chain: T1 chain

[3] = molecular target: T3, iASPP CTD (625–828) (UniProt Q8WUF5 625-828); assay: ITC
T3 chain: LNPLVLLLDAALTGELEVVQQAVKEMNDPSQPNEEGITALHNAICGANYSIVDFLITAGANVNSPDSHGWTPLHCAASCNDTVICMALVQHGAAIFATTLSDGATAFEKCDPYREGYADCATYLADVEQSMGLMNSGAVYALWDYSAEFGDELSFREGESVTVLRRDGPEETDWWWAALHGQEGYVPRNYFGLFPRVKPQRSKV

[4] = molecular target: T4, Halo-tagged iASPP CTD (625–828) (UniProt Q8WUF5 625-828); assay: pull-down; displacement pull-down: 25 μM JunD or PP1 peptide added to Halo-iASPP CTD on magnetic Halo beads, read by loss of in vitro translated Myc-tagged protein; settings: both partners purified
T4 construct: iASPP C-terminal domain (CTD) with the SH3 domain, residues 625-828; also called iASPP CTD fused to Halo-Tag; not shown: HaloTag, N-terminal, kept
T4 sequence (looked up): T3 chain

binding result [1]: no binding
binding result [2]: no binding
Kd [3]: 4.58 µM
Binder: WLKPAAAPPPTPLRADGAPSA [JunD peptide (WLKPAAAPPPTPLRADGAPSA)]

binding result [4]: binds
B1: PP1alpha peptide (WNPGGRPITPPRNSA) (peptide)
peptide: WNPGGRPITPPRNSA
notes: leading tryptophan; PxxP-containing peptide derived from the phosphatase PP1 (PP1alpha), C-terminal tail; also called PP1 peptide; source: synthetic peptide (TUCF, custom made)
